Consider 22 sequences from the DeepSol protein solubility set.

The data set can be described thus: soluble on expression in E. coli; label from the status in PepcDB or PDB records.
On to “MSVSYKGTISKTHSVFKPEKGRYYIYGALGCPFTHRAILARSLKKLEPVLGLVLSHWQLDSKGARFLPAPHRPEKYKERFFTATGGIASAKLDESEELGDVNNDSARLFVDGAFDPVENISRLSELYYLNDPKYPGTKFTVPVLWDSKTRKIVNNESGDIIRILNSGVFDEFIQSEETNVIDLVPHDLIDEIDKNIKWVHPKINLGVYKVGLAENGKIYETEVKTLFENLQKMECVLKENYKRLEEQFSGNKQKILAKYFVLGQRLTEADIRLYPSIIRFDVVYVQHFKCNLKTIRDGFPYLHLWLINLYWNYAEFRFTTDFNHIKLFYIRMEVSRNKINQFGIVPLGPKPDISRL”, for which the “soluble on expression in E. coli” value is reported as “soluble”.
In the case of “MKTLPPILSNIIEKVTNTEPANVEDKLPMNILVLGSDEKQGGRSDTIMLVHIQKDFQPIVISIPRDTRVKVEGIKGYSKINAAYAYGKSKLAVKTVEDILGIKIDKYVVVNYEAVEKIVDLVGGVDVEVPFHLYYVDTTPGKELYINIPAGLQHLDGKKAVEFLRWRHNSNGKEYGRGGDLGRIEMQRKLLYALIEKMLKPQNIVRLPLIVQTVSKYTDHNFTKNEIMWFIQNVGKFNTQNIMMTILPGYPKYIDRVSYYILNEEKCRALIDDLNEPEVLKDSMKIKILSKSFDDKATQLKNDLESKGYSNVNLGRVSKLESSEVELKRVNRKYLELLKNDIDLSTYQVVYSPDYSDKFDVYIKVKLEHHHHHH”, the “soluble on expression in E. coli” value was “soluble”.
Take “MKTYSEARARLRWYQGRYIDFDGWYGYQCADLAVDYIYWLLEIRMWGNAKDAINNDFKNMATVYENTPSFVPQIGDVAVFTKGIYKQYGHIGLVFNGGNTNQFLILEQNYDGNANTPAKLRWDNYYGCTHFIRPKYKSEGLMNKITNKVKPPAQKAVGKSASKITVGSKAPYNLKWSKGAYFNAKIDGLGATSATRYGDNRTNYRFDVGQAVYAPGTLIYVFEIIDGWCRIYWNNHNEWIWHERLIVKEVFLEHHHHHH”: the “soluble on expression in E. coli” value is listed as “not soluble”.
The result for “HPIFQRDGDDLHCEVPVRISQAALGDIVRVATLDGEAEIRIPAETQSGKLFRLRGKGVRSVRSRTEGDLYCRIVVETPVNLTAEQRKLLEQFEMTFAGEDARK” reads “not soluble”; that for “GHHHHHHAIAENLYFQSETSETDSTGNTQTCETRQTRSNSWTAWGIHAISTITDGAKQLYTKALGLDELEEKKLEDEEGVTHVEVDEKTKRDLWNQLSTLVGADVINMRLSLPVWLFEPTTALQRMCETLQFHQLLDMAATCEEPVERDALVAAFTVSAFAHTERVYKPFNPVLGETFEWTSRDGTTRVLCEQVSHHPPVSVSYTEGPGWVAQEVFSCNAYFLGNSVEIRNTGSRYVYLTSFDERYEWTLPVSAAQNLFVGGSFIDHYGELILRSSPRGSVTSLTFTKCGWFGRGRYAVNGDIVDADGYRVMELSGEWNRGLVGFRLDKSSGERVDAKSLWYAGEHKPAVKRDKYNFTNFTYELLEVPDNAESIIPPTDSRFRPDRRALEGNNLSLANLEKVRVENIQRERENQRQKTGTTYVPAWFYQDDNNEWHFGGKYWKETRNMSEDQKEQMKLW”, “not soluble”.
Turning to “MSLPTNPFISLFGRSPIGPMQQHIAKAHECAAGLLPFFRAVIAEDWAQVEQVQQDMVRLEQEADRLKKHVRMHLPKSLFLPVPRSDLLELLSVQDKVANRAKDIAGLMLGRRMRIPLPLQGQMLAYVQRSVDASAQALRVVNELNELLETGFGGRETSLVESMVEELEAIENDTDRIQVEVRRELFRLESELPPVDVMFLYQIIEWIGDVADRAQRVGNRLEQLLAREGHHHHHH”, the “soluble on expression in E. coli” value is reported as “soluble”.
Regarding “MKIAALYDIHGNYPALKEVLKQVKKLSPDLVVLGGDLIAGPMPLETLSLLKHVSTTFKTVGIMGNNDQDIVDIYAKKRVGLSRKATEQLTWIANQLSYKQVSFLRNLLPSISIGNYFFCHAVKNDNTTVFSPQQNKAYIETLFKGVQESYIICGHTHIQFELSLPNKKIINAGSIGMPFSNQFGAQWLWLDDNRIEYKRTIFNQQAAIQLISQTEYPFKNEFLEHHHHHH”, the “soluble on expression in E. coli” value is on record as “not soluble”.
With “MSLSSVKDFPKIKAIRSFIIGGVGSGGDYHNVKGGHWLIDSDISTPASKWEQYKKSRTSWGINVLGSFLVEIEATDGTVGFATGFGGPPACWLVHQHFERFLIGADPRNTNLLFEQMYRASMFYGRKGLPIAVISVIDLALWDLLGKVRNEPVYRLIGGATKERLDFYCTGPEPTAAKAMGFWGGKVPLPFCPDDGHEGLRKNVEFLRKHREAVGPDFPIMVDCYMSLNVSYTIELVKACLDLNINWWEECLSPDDTDGFALIKRAHPTVKFTTGEHEYSRYGFRKLVEGRNLDIIQPDVMWLGGLTELLKVAALAAAYDVPVVPHASGPYSYHFQISQPNTPFQEYLANSPDGKSVLPVFGDLFIDEPIPTKGYLTTADLDKPGFGLTINPAARAKLIPSDYLFKVPEIPQNLSTGKEIKSNEQPDKPNGTLDSLAAKVESLTTSTSSEGHHHHHH”, the “soluble on expression in E. coli” value is “soluble”.
The result for “LDGVLVPESGILVSVGQDVDSVNDYASALGTIPAGVTNYVGIVNLDGLNSDADAGAGRNNIAELANAYPTSALVVGVSMNGEVDAVASGRYNANIDTLLNTLAGYDRPVYLRWAYEVDGPWNGHSPSGIVTSFQYVHDRIIALGHQAKISLVWQVASYCPTPGGQLDQWWPGSEYVDWVGLSYFAPQDCNWDRVNEAAQFARSKGKPLFLNESTPQRYQVADLTYSADPAKGTNRQSKTSQQLWDEWFAPYFQFMSDNSDIVKGFTYINADWDSQWRWAAPYNEGYWGDSRVQANALIKSNWQQEIAKGQYINHSETLFETLGYGSTHHHHHH” reads “soluble”; that for “MLGKGGKRKFDEHEDGLEGKIVSPCDGPSKVSYTLQRQTIFNISLMKLYNHRPLTEPSLQKTVLINNMLRRIQEELKQEGSLRPMFTPSSQPTTEPSDSYREAPPAFSHLASPSSHPCDLGSTTPLEACLTPASLLEDDDDTFCTSQAMQPTAPTKLSPPALLPEKDSFSSALDEIEELCPTSTSTEAATAATDSVKGTSSEAGTQKLDGPQESRADDSKLMDSLPGNFEITTSTGFLTDLTLDDILFADIDTSMYDFDPCTSSSGTASKMAPVSADDLLKTLAPYSSQPVTPSQPFKMDLTELDHIMEVLVGS”, “soluble”.
Take “MSHIIDRRLNGKNKSAVNRERFLRRFKAQIKEAVSKAIKGRSITDIESGEKVSIPVKDISEPSFHHGKGGVWENVHPGNEEFVKGDRIPRPQGGAGGGGSKASQDGEGEDDFVFQLSREEFMNVFFDDLALPNLVKTQLMGIEEMKTVRAGYTNDGTPTNINIVRSPRGALARRVAMAAPTLSSIDEAEEELDTLIESDDDNALEVRDRRQRIHQMKERLASIPWIDPFDLRYNNRVKQPKPTSQAVMFCIMDVSGSMDEQKKDMAKRFFILLYMFLQRNYEKIEVVFIRHHTSAVEVNEQDFFHSRESGGTVVSSALNLMSDVIRKRYASSEWNIYAAQASDGDNWDSDSANCGRILEENLLPYCQYFAYIEITEGEPQNLWYEYLKVKAQCPQFAMQKIRSASDIYPVFRELFKRQPANGRVSALEHHHHHH”: the “soluble on expression in E. coli” value is “soluble”.
As for “MVKKMVIAVRKDLDMGKGKIAAQVAHAAVTCAIRSMKINRDVFNEWYDEGQRKIVVKVNDLDEIMEIKRMADSMGIVNEIVQDRGYTQVEPGTITCIGLGPDEEEKLDKITGKYKLL”, the “soluble on expression in E. coli” value is reported as “soluble”.
Take “MCESDKLHDEINVIDIKIYPNRFLKPKTTELLLNKICGLEGYVRFLIHGPSLPKKVFYGPGKGHDVNHGDRKSILVNGNGIDLKVMVGEIIITVELDKFNDFMNQLEDILTETLSVEYSLLVGIFTRTTSTISDYLKYGIGFENLIDKRYIGLIDSRARSSESISIIKLEHHHHHH”: the “soluble on expression in E. coli” value is “not soluble”.
As for “METKFYNHQGGHLILYFAGWGTPPDAVNHLILPENHDLLICYDYQDLNLDFDFSAYRHIRLVAWSMGVWAAERALQGIRLKSATAVNGTGLPCDDNFGIPCTVFKGTLENLTENTRLKFERRMCGDKASFEDYQQFPARPFGEIHQELIALFAMIGQDRRTDLIRWTNALVGSGDKIFMPANQHRYWTPRCTVREIDVGHYLFSRFTHWSALWNH”, the “soluble on expression in E. coli” value is listed as “not soluble”.
Regarding “MSLEASLVKLSEQELTSLNYAFQQMRKPLQTINYDYAVWDRTYSYMKSNSASAKRYYEKHEYPDDTFKSLKVDGVFIFNRTNQPVFSKGFNHRNDIPLVFELTDFKQHPQNIALSPQTKQAHPPASKPLDSPDDVPSTHGVIATRYGPAIYSSTSILKSDRSGSQLGYLVFIRLIDEWFIAELSQYTAAGVEIAMADAADAQLARLGANTKLNKVTATSERLITNVDGKPLLKLVLYHTNEGHHHHHH”, the “soluble on expression in E. coli” value is “not soluble”.
In the case of “MDTMGRHVISELWGCDFDKLNDIDFIEKTFVDAALKSGAEIREVAFHKFAPQGVSGVVIISESHLTIHTFPEHGYASIDVYTCGHLDPTIAADYIAEMLGAQTRETIELPRGMRPIEVKKAQAL”, the “soluble on expression in E. coli” value is “soluble”.
As for “MSLISVIMPVYNCEKYLEESIESILKQTYRDFEFIIVNDGSNDKSIDIINKYANDDNRIVVVSRDNNMGMVYSLNEGIDRAKGSYVARMDADDIALPERFERQIEYLNKNKDVDILACKVEAFGDVSREQKLEREHWYNVDLNNSESIESLFLENCYIAHPSVMMKMSVLKALGGYNLNYKRTEDYNLWLRAIAKGYKIAMLEEKLMKIRLHNDSKIHRDAEGFSSIRDIIQSRLEYVKEKLKLKDFSYVIWGASNGGKIAYEKIKEVFPNAKLNGYIDKFKTGKFEGVDIFYPEDLSKMKVDYVFIATLPGCKEAKGILTKNNFVPIKDFLVLCEGHHHHHH”, the “soluble on expression in E. coli” value is reported as “soluble”.
Consider “GPGSMAGVLHETATTVSYRGALCKLAGVELQGINLSPPQRLCQLELLISREINWLAAVLEEWEEKYMLFTCVPYRGVVDAFTTLLRTIKRHLETENSSKDNEKEWDALLASSITEFQVEVMEIGKGKSY”, for which the “soluble on expression in E. coli” value was “soluble”.
The value for “MGSDKIHHHHHHMSKSLFPFRFLLPVPVDHYENFPVASWLLPGRLREPVSAIYRFARSADDLADEGDAPPRARLQELARYHSELDRIERGEIPDDPIFGRLAAAIRAHALPLTPFRDLLSAFAQDIEKTRYASFGEVMDYCRRSANPVGRLMLHLYGDHDPRHQAYSDAICSSLQLINFLQDVAIDYAKGRIYLPQDELAAHHVSEAQIAAGDAGGLWRMMMHKQIERARKLLQAGAPLGRALDGRIGLELRVTIRGGETILRKLHADPGCVFGARPVLGKRDWIVMLARSVL” was “not soluble”; that for “MDIKELHVKTVKRGENVTMECSMSKVTNKNNLAWYRQSFGKVPQYFVRYYSSNSGYKFAEGFKDSRFSMTVNDQKFDLNIIGAREDDGGEYFCGEVEGIIIKFTSGTRLQFEGSNEGSKSSDGEGSSCPDQMHVLVW” was “soluble”.
For the sequence “TKDFSWNTTFNISHNKNEIVTLDGMQTEIISGTQIRKVGKSYRTFYMIEFAGINPETGAPQFYTNDLDENGNYIKEITEKYSEANAIVLDKHAEPNVIGGLSNTLRYKWFDLNFMFSYQFGGYSYDNWAQKTEHGGNDLEANIPTYYRDSWKQPGDITKYELFIESPDVAMNKSTTTRRLHSSDFIRLKTLTFGITLPQVWTQKIGVNNVRVYASANNLWTWAAYDYYDPEAVSGGSAIWGTPPLKTVTFGLSVNF”, the “soluble on expression in E. coli” value is reported as “not soluble”.
“MAMPTIRHVRAFIVRGGGADYHDQPGGHWIDDHISTPMARYPEYRQSRQSFGINVLGTLVVEIEASDGTVGFAVTTGGEIGAFIVEKHLARFLEGQLVTDIEKMWDQMYFSTLYYGRKGVVLNTISGVDLALWDLLAKVRKEPVYQLLGGPVRDELVFYATGARPDLAKEMGFIGGKLPLQHGPAEGDAGLRQNLDKLAEMRSRVGDDFWLMYDCWMSLDVPYATRLAQAAHEYGLKWIEECLPPDDYWGYAELRRNVPRGMMVSTGEHEATRWGFRMLLEMQCCDLIQPDVGWCGGITELIKISALADAHNVMVVPHGSSVYSYHFVVTRHNSPFAEFLMMAPKADEVVPMFTPLLLDEPVPVNGRMKVPDAPGFGVRLNPECALVRPYAR”: the “soluble on expression in E. coli” value is “soluble”.
